Experimental data reported in publication PMC5123050.

Biological target: 32P-labelled ORF145/RIP (protein kinase A recognition sequence and C-terminal His-tag) (Acidianus two-tailed virus (ATV))
Test: native gel or EMSA; 32P-ORF145/RIP (1 nM) with 1–100 nM Sso RNAP in 10 mM MOPS pH 6.5, 10 mM MgCl2, 260 mM NaCl, 5 mM DTT, 10% glycerol, BSA, 2 mM ATP, 65 °C 5 min; 6% native PAGE; tight binding equation; complexes also resistant to 2 M NaCl

**Q.** How did the Kd turn out when “Sulfolobus solfataricus (Sso) RNA polymerase, 13 subunits (from UniProt Q980R2 1-880) (complex)” was run?
**A.** 0.0126 µM
